# Changes are numbered by the printed parent chain. In names and notes the source's numbering stands.
# B1: feline IgG1a wild-type (WT) (antibody, part only; not given: Variable domains, not shown: another chain or arm of the molecule)
# constant: ASTTAPSVFPLAPSCGTTSGATVALACLVLGYFPEPVTVSWNSGALTSGVHTFPAVLQASGLYSLSSMVTVPSSRWLSDTFTCNVAHPPSNTKVDKTVRKTDHPPGPKPCDCPKCPPPEMLGGPSIFIFPPKPKDTLSISRTPEVTCLVVDLGPDDSDVQITWFVDNTQVYTAKTSPREEQFNSTYRVVSVLPILHQDWLKGKEFKCKVNSKSLPSPIERTISKAKGQPHEPQVYVLPPAQEELSRNKVSVTCLIKSFHPPDIAVEWEITGQPEPENNYRTTPPQLDSDGTYFVYSKLSVDRSHWQRGNTYTCSVSHEALHSHHTQKSLTQSPGK
# B2: feline IgG1a S252A (antibody, part only; not given: Variable domains, not shown: another chain or arm of the molecule; small tags and cut ends)
# constant: B1 constant with S138A
# B3: feline IgG1a S254M (antibody, part only; not given: Variable domains, not shown: another chain or arm of the molecule)
# constant: B1 constant with S140M
# B4: feline IgG1a A378S (antibody, part only; not given: Variable domains, not shown: another chain or arm of the molecule)
# constant: B1 constant with A264S
# B5: feline IgG1a S252L (antibody, part only; not given: Variable domains, not shown: another chain or arm of the molecule)
# constant: B1 constant with S138L
# B6: feline IgG1a A378V (antibody, part only; not given: Variable domains, not shown: another chain or arm of the molecule; small tags and cut ends)
# constant: B1 constant with A264V
# B7: feline IgG1a S254A (antibody, part only; not given: Variable domains, not shown: another chain or arm of the molecule)
# constant: B1 constant with S140A
# B8: feline IgG1a S252W (antibody, part only; not given: Variable domains, not shown: another chain or arm of the molecule)
# constant: B1 constant with S138W
# B9: feline IgG1a S428H (antibody, part only; not given: Variable domains, not shown: another chain or arm of the molecule)
# constant: B1 constant with S316H
# B10: feline IgG1a S254K (antibody, part only; not given: Variable domains, not shown: another chain or arm of the molecule)
# constant: B1 constant with S140K
# B11: feline IgG1a S434M (antibody, part only; not given: Variable domains, not shown: another chain or arm of the molecule)
# constant: B1 constant with S322M
# B12: feline IgG1a S428T (antibody, part only; not given: Variable domains, not shown: another chain or arm of the molecule; small tags and cut ends)
# constant: B1 constant with S316T
# B13: feline IgG1a S254F (antibody, part only; not given: Variable domains, not shown: another chain or arm of the molecule)
# constant: B1 constant with S140F
# B14: feline IgG1a S254E (antibody, part only; not given: Variable domains, not shown: another chain or arm of the molecule)
# constant: B1 constant with S140E
# B15: feline IgG1a S252Q (antibody, part only; not given: Variable domains, not shown: another chain or arm of the molecule)
# constant: B1 constant with S138Q
# B16: feline IgG1a S252D (antibody, part only; not given: Variable domains, not shown: another chain or arm of the molecule; small tags and cut ends)
# constant: B1 constant with S138D
# B17: feline IgG1a S428W (antibody, part only; not given: Variable domains, not shown: another chain or arm of the molecule; small tags and cut ends)
# constant: B1 constant with S316W
# B18: feline IgG1a S428I (antibody, part only; not given: Variable domains, not shown: another chain or arm of the molecule)
# constant: B1 constant with S316I
# B19: feline IgG1a S434H (antibody, part only; not given: variable domains and light chain, not shown: another chain or arm of the molecule; small tags and cut ends)
# constant: B1 constant with S322H
# B20: feline IgG1a S254Q (antibody, part only; not given: Variable domains, not shown: another chain or arm of the molecule)
# constant: B1 constant with S140Q
# B21: feline IgG1a S254N (antibody, part only; not given: Variable domains, not shown: another chain or arm of the molecule)
# constant: B1 constant with S140N
# B22: feline IgG1a S428E (antibody, part only; not given: Variable domains, not shown: another chain or arm of the molecule)
# constant: B1 constant with S316E
# B23: feline IgG1a S428F (antibody, part only; not given: Variable domains, not shown: another chain or arm of the molecule)
# constant: B1 constant with S316F
# B24: feline IgG1a S252C (antibody, part only; not given: Variable domains, not shown: another chain or arm of the molecule; small tags and cut ends)
# constant: B1 constant with S138C
# B25: feline IgG1a S428K (antibody, part only; not given: Variable domains, not shown: another chain or arm of the molecule)
# constant: B1 constant with S316K
# B26: feline IgG1a S252I (antibody, part only; not given: Variable domains, not shown: another chain or arm of the molecule)
# constant: B1 constant with S138I
# B27: feline IgG1a S254R (antibody, part only; not given: Variable domains, not shown: another chain or arm of the molecule)
# constant: B1 constant with S140R
# B28: feline IgG1a S428Q (antibody, part only; not given: Variable domains, not shown: another chain or arm of the molecule; small tags and cut ends)
# constant: B1 constant with S316Q
# B29: feline IgG1a S252P (antibody, part only; not given: Variable domains, not shown: another chain or arm of the molecule)
# constant: B1 constant with S138P
# B30: feline IgG1a S434I (antibody, part only; not given: Variable domains, not shown: another chain or arm of the molecule)
# constant: B1 constant with S322I
# B31: feline IgG1a A378T (antibody, part only; not given: Variable domains, not shown: another chain or arm of the molecule; small tags and cut ends)
# constant: B1 constant with A264T
# B32: feline IgG1a S252G (antibody, part only; not given: Variable domains, not shown: another chain or arm of the molecule)
# constant: B1 constant with S138G
# B33: feline IgG1a S252T (antibody, part only; not given: Variable domains, not shown: another chain or arm of the molecule)
# constant: B1 constant with S138T
# B34: feline IgG1a A378Y (antibody, part only; not given: Variable domains, not shown: another chain or arm of the molecule; small tags and cut ends)
# constant: B1 constant with A264Y
# B35: feline IgG1a A378R (antibody, part only; not given: Variable domains, not shown: another chain or arm of the molecule)
# constant: B1 constant with A264R
# B36: feline IgG1a S434N (antibody, part only; not given: Variable domains, not shown: another chain or arm of the molecule)
# constant: B1 constant with S322N
# B37: feline IgG1a S428R (antibody, part only; not given: Variable domains, not shown: another chain or arm of the molecule; small tags and cut ends)
# constant: B1 constant with S316R
# B38: feline IgG1a S254L (antibody, part only; not given: variable domains and light chain, not shown: another chain or arm of the molecule)
# constant: B1 constant with S140L
# B39: feline IgG1a A378W (antibody, part only; not given: Variable domains, not shown: another chain or arm of the molecule; small tags and cut ends)
# constant: B1 constant with A264W
# B40: feline IgG1a S252V (antibody, part only; not given: Variable domains, not shown: another chain or arm of the molecule)
# constant: B1 constant with S138V
# B41: feline IgG1a S252K (antibody, part only; not given: variable domains and light chain, not shown: another chain or arm of the molecule)
# constant: B1 constant with S138K
# B42: feline IgG1a S252E (antibody, part only; not given: variable domains, not shown: another chain or arm of the molecule)
# constant: B1 constant with S138E
# B43: feline IgG1a A378Q (antibody, part only; not given: Variable domains, not shown: another chain or arm of the molecule)
# constant: B1 constant with A264Q
# B44: feline IgG1a S428L (antibody, part only; not given: Variable domains, not shown: another chain or arm of the molecule)
# constant: B1 constant with S316L
# B45: feline IgG1a S254D (antibody, part only; not given: Variable domains, not shown: another chain or arm of the molecule)
# constant: B1 constant with S140D
# B46: feline IgG1a S428M (antibody, part only; not given: Variable domains, not shown: another chain or arm of the molecule)
# constant: B1 constant with S316M
# B47: feline IgG1a S252M (antibody, part only; not given: Variable domains, not shown: another chain or arm of the molecule)
# constant: B1 constant with S138M
# B48: feline IgG1a S428N (antibody, part only; not given: Variable domains, not shown: another chain or arm of the molecule; small tags and cut ends)
# constant: B1 constant with S316N
# B49: feline IgG1a S434P (antibody, part only; not given: Variable domains, not shown: another chain or arm of the molecule)
# constant: B1 constant with S322P
# B50: feline IgG1a S252N (antibody, part only; not given: variable domains, not shown: another chain or arm of the molecule)
# constant: B1 constant with S138N
# B51: feline IgG1a S254T (antibody, part only; not given: Variable domains, not shown: another chain or arm of the molecule)
# constant: B1 constant with S140T
# B52: feline IgG1a S434K (antibody, part only; not given: variable domains and light chain, not shown: another chain or arm of the molecule)
# constant: B1 constant with S322K
# B53: feline IgG1a S434L (antibody, part only; not given: Variable domains, not shown: another chain or arm of the molecule)
# constant: B1 constant with S322L
# B54: feline IgG1a S428D (antibody, part only; not given: Variable domains, not shown: another chain or arm of the molecule)
# constant: B1 constant with S316D
# B55: feline IgG1a S428G (antibody, part only; not given: Variable domains, not shown: another chain or arm of the molecule)
# constant: B1 constant with S316G
# B56: feline IgG1a S428V (antibody, part only; not given: Variable domains, not shown: another chain or arm of the molecule; small tags and cut ends)
# constant: B1 constant with S316V
# B57: feline IgG1a S254H (antibody, part only; not given: Variable domains, not shown: another chain or arm of the molecule)
# constant: B1 constant with S140H
# B58: feline IgG1a S428A (antibody, part only; not given: Variable domains, not shown: another chain or arm of the molecule)
# constant: B1 constant with S316A
# B59: feline IgG1a S254G (antibody, part only; not given: Variable domains, not shown: another chain or arm of the molecule)
# constant: B1 constant with S140G
# B60: feline IgG1a S428P (antibody, part only; not given: Variable domains, not shown: another chain or arm of the molecule; small tags and cut ends)
# constant: B1 constant with S316P
# B61: feline IgG1a S428C (antibody, part only; not given: Variable domains, not shown: another chain or arm of the molecule)
# constant: B1 constant with S316C
# Target: feline FcRn complex (FcRn-α subunit and β-microglobulin), biotin labeled (feline)
# Experiment: SPR, pH 6
row,Molecule,Kd [nM]
1,feline IgG1a S434Q (antibody),4.8
2,B1,20.2
3,B2,27.1
4,B3,101
5,B4,48.3
6,B5,70.7
7,B6,42.9
8,B7,53
9,B8,80.3
10,B9,41.6
11,B10,46.5
12,B11,2.8
13,B12,27.3
14,B13,568
15,B14,0.711
16,B15,192
17,B16,93.5
18,B17,36.4
19,B18,40.8
20,B19,1.02
21,B20,24.7

row,Molecule,Kd [nM]
1,B21,25.7
2,B22,184
3,B23,83.9
4,B24,922
5,B25,70.2
6,B26,156
7,B27,21.5
8,B28,38.3
9,B29,7030
10,B30,14.4
11,B31,59.2
12,B32,49.8
13,B33,1190
14,B34,69.6
15,B35,36.2
16,B36,6.94
17,B37,68.6
18,B38,42.7
19,B39,91
20,B40,4470
21,B41,53.7

row,Molecule,Kd [nM]
1,B42,163
2,B43,49
3,B44,81.5
4,B45,474
5,B46,21.8
6,B47,55
7,B48,42.9
8,B49,5.64
9,B50,400
10,B51,16.1
11,B52,6.76
12,B53,8.67
13,B54,362
14,B55,46.3
15,B56,19.2
16,B57,1850
17,B58,119
18,B59,64.2
19,B60,18
20,B61,61.4

# — US20240400708A1
